From patent US20210269549A1, “ANTI-SAS1B ANTIBODIES, ASSOCIATED METHODS OF USE, AND COMPOSITIONS AND METHODS FOR DETECTING AND TREATING CANCER” (UNIVERSITY OF VIRGINIA PATENT FOUNDATION, priority 2015, published 2021)

Key:
[1] = system: human uterine cancer cells (MMMT539); assay: Antibody drug conjugate cytotoxicity (ADC) assay, MMMT539; format: cell-based; details: FIG. 3A-B
Experimental: The cytotoxic effect of anti-human SAS1B mAbs SB2 and SB5 on human uterine cancer cells (MMMT539) was examined by antibody drug conjugate cytotoxicity (ADC) assay. Human uterine cancer cells MMMT539 were seeded in triplicate on 96 well plate overnight and then treated with SB2 or SB5 and anti-mouse Fab-cleavable-Duocarmycin complex for ˜90 h. The presence of viable live cells per well was measured by total cellular ATP content in relative luminescence unit (RLU). Viability of control live cells (100%) was determined from average of 9 wells in terms of total cellular ATP (in RLU) containing the constant 15 nM Fab-CL-DMDM for each set of antibody/reagent. […] Staurosporine, a general protein kinase inhibitor, was used to induce apoptosis in 1% DMSO as a positive control for the assay.

[2] = target: T1, full-length SAS1B splice variant A polypeptide (Homo sapiens, UniProt Q6HA08); assay: Western blot with mammalian cell-expressed recombinant SAS1B, full length; format: binding
T1 construct: made in house
T1 sequence (Q6HA08 24-431): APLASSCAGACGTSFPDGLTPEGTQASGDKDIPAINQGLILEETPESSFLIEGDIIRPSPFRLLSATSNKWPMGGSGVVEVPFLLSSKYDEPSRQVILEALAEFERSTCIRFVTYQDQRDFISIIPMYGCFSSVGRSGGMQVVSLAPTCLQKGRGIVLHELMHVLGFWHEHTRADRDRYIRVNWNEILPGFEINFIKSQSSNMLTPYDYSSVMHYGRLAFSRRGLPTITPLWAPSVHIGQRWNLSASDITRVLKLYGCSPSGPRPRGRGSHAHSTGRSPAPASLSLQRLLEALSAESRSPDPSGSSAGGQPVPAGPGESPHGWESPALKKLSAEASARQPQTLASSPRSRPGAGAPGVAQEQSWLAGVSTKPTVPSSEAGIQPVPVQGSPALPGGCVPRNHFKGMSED
Experimental: (§1) SAS1B monoclonal antibodies were analyzed with mammalian cell-expressed recombinant SAS1B by western blotting.

[3] = target: T2, SAS1B extracellular domain (aa 164-431) polypeptide (Homo sapiens, UniProt Q6HA08); assay: Western blot with mammalian cell-expressed recombinant SAS1B, extracellular domain; format: binding
T2 construct: SAS1B extracellular domain (aa 164-431) polypeptide; made in house
T2 sequence (Q6HA08 164-431): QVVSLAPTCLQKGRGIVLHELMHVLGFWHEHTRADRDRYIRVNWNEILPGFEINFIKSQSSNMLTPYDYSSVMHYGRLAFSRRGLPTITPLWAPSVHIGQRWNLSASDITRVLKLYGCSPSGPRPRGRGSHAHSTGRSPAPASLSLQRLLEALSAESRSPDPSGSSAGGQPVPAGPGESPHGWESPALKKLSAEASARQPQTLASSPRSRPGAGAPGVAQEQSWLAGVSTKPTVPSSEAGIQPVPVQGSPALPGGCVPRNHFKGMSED
Experimental: as §1

human SAS1B = target: T3, human SAS1B (Homo sapiens, UniProt Q6HA08); assay: Western blot of human SAS1B probed with anti-human SAS1B murine mAbs; format: binding; details: for Specifically binds human SAS1B (and not mouse SAS1B): Table 1
T3 construct: made in house; host or cells: E. coli
T3 sequence (Q6HA08 24-431): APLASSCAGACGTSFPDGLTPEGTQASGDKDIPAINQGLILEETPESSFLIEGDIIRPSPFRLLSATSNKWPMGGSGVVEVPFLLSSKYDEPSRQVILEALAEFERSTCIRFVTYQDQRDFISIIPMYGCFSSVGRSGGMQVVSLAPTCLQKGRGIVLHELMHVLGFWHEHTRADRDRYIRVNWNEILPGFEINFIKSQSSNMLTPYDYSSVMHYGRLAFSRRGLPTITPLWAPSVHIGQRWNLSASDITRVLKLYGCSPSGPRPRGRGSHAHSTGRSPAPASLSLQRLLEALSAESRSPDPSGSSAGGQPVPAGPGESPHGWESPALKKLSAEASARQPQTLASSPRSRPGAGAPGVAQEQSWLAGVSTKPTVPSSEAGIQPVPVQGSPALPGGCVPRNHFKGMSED
Description: A western blot of human SAS1B and mouse SAS1B was probed with anti-human SAS1B murine monoclonal antibodies SB1, SB2, SB3, SB4, SB5, SB6, and SB7.

[4] = target: T4, human SAS1B protein with a C-terminal V5 tag expressed by HEK293T cells (Homo sapiens, UniProt Q6HA08); assay: Double immunofluorescence on fixed and permeabilized HEK293T cells transfected with SAS1B SV-A with V5 tag; format: cell-based; details: for IF signal / colocalization with V5-tag epitope signal: SV-A transfected HEK293T, PFA fixed, methanol permeabilized, mAbs at 10 ug/ml
T4 construct: expressed in transfected cells; host or cells: HEK293T
T4 sequence (Q6HA08 24-431): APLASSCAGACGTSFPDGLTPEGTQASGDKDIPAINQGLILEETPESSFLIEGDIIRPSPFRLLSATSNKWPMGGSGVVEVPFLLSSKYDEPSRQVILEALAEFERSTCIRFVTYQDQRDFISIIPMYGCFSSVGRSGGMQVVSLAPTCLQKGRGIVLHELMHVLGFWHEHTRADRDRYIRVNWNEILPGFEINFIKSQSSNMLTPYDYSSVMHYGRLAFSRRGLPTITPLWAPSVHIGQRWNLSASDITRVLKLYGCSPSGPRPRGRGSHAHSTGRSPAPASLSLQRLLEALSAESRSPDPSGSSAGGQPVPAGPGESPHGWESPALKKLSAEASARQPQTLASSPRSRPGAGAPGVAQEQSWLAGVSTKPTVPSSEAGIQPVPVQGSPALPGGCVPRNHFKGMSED
Experimental: Experiments were conducted to determine the specificity of anti-human SAS1B monoclonal antibodies SB1, SB2, SB3, SB4, SB5, SB6 and SB7 against the human SAS1B protein with a C-terminal V5 tag expressed by HEK293T cells by double immuno-fluorescence from two different SAS1B epitopes. HEK293T cells were seeded at ˜100,000 per well of a 24 well plate containing a lysine-coated 12 mm coverslip. 24 hours later, the cells were transfected with 1 ug of SV-A plasmid with 2 ul of TURBOFECT® transfection reagent followed by no change of media. 48 h later the cells were PFA (paraformaldehyde) fixed and methanol permeabilized for an IF study as follows.
The cells were removed from cell culture media and fixed in 4% PFA in PBS, 300 ul for 15 min. The cells were washed in 1 ml PBS in wells for 3 times and permeabilized in methanol (100%) for 15 min in 0.5 ml at RT. The cells were washed in PBS 1 ml for 3 times and blocked in complete culture media (DMEM) with 5% normal goat serum (NGS) for 30 min (i.e. BB, blocking buffer). The first antibody in BB was added for 1 h at 10 ug/ml for mouse monoclonal antibodies (SB1, SB2, SB3, SB4, SB5, SB6, SB7) and 5 ug/ml for anti-V5 DYLIGHT® 488 (green) rabbit (a rabbit polyclonal antibody to V5 tag). The cells were washed in PBS 3 times. The second antibody in BB (Goat anti-mouse Alexa Flour 594, red) was added for 1 h at 5 ug/ml (1:200 dilution). The cells were washed in PBS 3 times. The cells were mounted in slow fade DAPI 3 ul and stored at 4° C. before confocal imaging.

Reaction with SAS1B extracellular domain (aa 164-431) polypeptide [3] | Reactivity on western blot of human SAS1B and mouse SAS1B (human SAS1B) | Specificity in western blot for human SAS1B antigen in an E. coli protein background (human SAS1B) | Specifically binds human SAS1B (and not mouse SAS1B) (human SAS1B) | Signal on mock transfected HEK293T cells [4] | Molecule | Cell killing [1] | Reaction with full-length SAS1B splice variant A polypeptide [2] | IF signal / colocalization with V5-tag epitope signal [4]
– | – | – | – | – | CN[C@@H]1C[C@H]2O[C@@](C)([C@@H]1OC)n1c3ccccc3c3c4c(c5c6ccccc6n2c5c31)C(=O)NC4 [Staurosporine, reference compound] | killed the cancer cells in a dose dependent manner | – | –
none of the them reacted | specific to the human SAS1B only | demonstrated specificity | Yes | no V5 signal or SAS1B signal | SB6: mouse anti-human SAS1B monoclonal antibody, IgG2b; VH SEQ ID NO:16, VL SEQ ID NO:18 (antibody, listed as Mus musculus, V domains shown) VH: EVQLQQSGPELVKPGSSVKISCKPSGYTFTDYNMVWMKQSHGKSLEWIGAINPNNGGTTYNQKFKGKATLTVDKSSSTAYMELRSLTSEDSAVYYCAPNWDWFAYWGQGTLVTVSA VL: DVLMTQIPLSLPVSLGDQASISCRSSQSILHSNGNTYLEWYLQKPGQSPKLLIYKVSNRFSGVPDRFSGSGSGTDFTLKISRVEAEDLGVYYCFQGSHVPFTFGSGTKLEIK | – | reacted with the full-length SAS1B splice variant A polypeptide | colocalize (merge) with V5-tag epitope signal
none of the them reacted | specific to the human SAS1B only | demonstrated specificity | Yes | no V5 signal or SAS1B signal | SB7: mouse anti-human SAS1B monoclonal antibody, IgG2b; VH SEQ ID NO:16, VL SEQ ID NO:18 (antibody, listed as Mus musculus, V domains shown) VH: EVQLQQSGPELVKPGSSVKISCKPSGYTFTDYNMVWMKQSHGKSLEWIGAINPNNGGTTYNQKFKGKATLTVDKSSSTAYMELRSLTSEDSAVYYCAPNWDWFAYWGQGTLVTVSA VL: DVLMTQIPLSLPVSLGDQASISCRSSQSILHSNGNTYLEWYLQKPGQSPKLLIYKVSNRFSGVPDRFSGSGSGTDFTLKISRVEAEDLGVYYCFQGSHVPFTFGSGTKLEIK | – | reacted with the full-length SAS1B splice variant A polypeptide | colocalize (merge) with V5-tag epitope signal
